Columns and labels:
Assay in all cases: cell-based or functional assay
[1] = target: Tau from human Alzheimer's disease brain (isolated Tau PHF fibrils from Alzheimer's disease patients) (human) (UniProt P10636)
[2] = target: Tau from human frontotemporal dementia brain (human) (UniProt P10636)
[3] = target: Tau from human progressive supranuclear palsy brain (human) (UniProt P10636)
[4] = target: human Tau P301L from brain of P301L Tau transgenic mice (human) (UniProt P10636)
[5] = target: human Tau P301S from brain of P301S Tau transgenic mice (human) (UniProt P10636)
Sequence of human Tau P301S from brain of P301S Tau transgenic mice (human) (P10636 other isoform, or with tags, fused parts or gaps P301S P301S P301S P301S): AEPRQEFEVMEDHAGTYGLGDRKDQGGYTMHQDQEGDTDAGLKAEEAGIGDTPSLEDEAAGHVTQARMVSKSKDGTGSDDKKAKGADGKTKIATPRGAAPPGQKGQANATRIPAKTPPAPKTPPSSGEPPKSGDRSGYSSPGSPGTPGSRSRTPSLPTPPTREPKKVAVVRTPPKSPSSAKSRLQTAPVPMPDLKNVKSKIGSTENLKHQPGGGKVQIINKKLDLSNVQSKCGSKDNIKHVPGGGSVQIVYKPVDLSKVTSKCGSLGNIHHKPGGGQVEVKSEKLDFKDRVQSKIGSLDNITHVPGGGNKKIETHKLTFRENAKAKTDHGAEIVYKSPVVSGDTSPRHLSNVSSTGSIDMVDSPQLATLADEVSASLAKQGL

Sequence of human Tau P301L from brain of P301L Tau transgenic mice (human) (P10636 other isoform, or with tags, fused parts or gaps P301L P301L P301L P301L limits assumed): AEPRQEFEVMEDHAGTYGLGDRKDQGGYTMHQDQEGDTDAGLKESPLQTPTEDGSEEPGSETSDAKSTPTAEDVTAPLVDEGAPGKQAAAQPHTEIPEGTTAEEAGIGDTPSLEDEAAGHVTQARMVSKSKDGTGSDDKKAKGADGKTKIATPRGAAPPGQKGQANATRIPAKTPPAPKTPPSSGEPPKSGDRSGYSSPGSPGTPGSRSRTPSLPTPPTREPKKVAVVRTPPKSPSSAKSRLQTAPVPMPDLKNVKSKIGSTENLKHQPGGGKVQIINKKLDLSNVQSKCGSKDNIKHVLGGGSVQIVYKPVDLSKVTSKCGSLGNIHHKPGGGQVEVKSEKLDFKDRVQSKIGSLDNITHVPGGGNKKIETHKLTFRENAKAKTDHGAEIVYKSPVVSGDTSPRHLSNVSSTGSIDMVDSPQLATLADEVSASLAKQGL
Sequence of Tau from human frontotemporal dementia brain (human) (P10636 other isoform, or with tags, fused parts or gaps limits assumed): as the sequence (P10636 other isoform, or with tags, fused parts or gaps P301L P301L P301L P301L limits assumed) above, with L300P counted along it
Sequence of Tau from human Alzheimer's disease brain (isolated Tau PHF fibrils from Alzheimer's disease patients) (human) (P10636 other isoform, or with tags, fused parts or gaps limits assumed): as the sequence (P10636 other isoform, or with tags, fused parts or gaps P301L P301L P301L P301L limits assumed) above, with L300P counted along it
Sequence of Tau from human progressive supranuclear palsy brain (human) (P10636 other isoform, or with tags, fused parts or gaps limits assumed): as the sequence (P10636 other isoform, or with tags, fused parts or gaps P301L P301L P301L P301L limits assumed) above, with L300P counted along it
Sequence of IPN002 of WO2014/028777A2 (antibody) (VH): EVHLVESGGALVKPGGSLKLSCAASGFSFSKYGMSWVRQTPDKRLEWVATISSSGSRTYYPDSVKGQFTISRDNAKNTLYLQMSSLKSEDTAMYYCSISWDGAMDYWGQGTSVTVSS
Sequence of IPN002 of WO2014/028777A2 (antibody) (VL): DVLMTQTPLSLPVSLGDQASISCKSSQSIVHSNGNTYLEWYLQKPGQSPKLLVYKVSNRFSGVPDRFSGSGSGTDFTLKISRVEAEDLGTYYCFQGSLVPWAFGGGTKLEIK
Sequence of HJ8.5 of WO 2014/008404 (antibody) (VH): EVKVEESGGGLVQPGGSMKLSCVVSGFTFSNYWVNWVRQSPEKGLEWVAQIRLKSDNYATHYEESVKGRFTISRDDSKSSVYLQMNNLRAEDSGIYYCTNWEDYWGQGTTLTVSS
Sequence of HJ8.5 of WO 2014/008404 (antibody) (VL): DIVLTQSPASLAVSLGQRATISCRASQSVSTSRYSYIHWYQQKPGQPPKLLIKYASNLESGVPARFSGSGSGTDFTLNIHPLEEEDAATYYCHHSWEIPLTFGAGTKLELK

Row | Imax (maximal efficacy at 300 nM, cellular Tau aggregation assay) [1] | Imax (maximal efficacy at 300 nM, cellular Tau aggregation assay) [2] | IC50 (cellular Tau aggregation assay) [3] | Imax (maximal efficacy at 300 nM, cellular Tau aggregation assay) [3] | IC50 (cellular Tau aggregation assay) [4] | Imax (maximal efficacy at 300 nM, cellular Tau aggregation assay) [4] | Imax (maximal efficacy at 300 nM, cellular Tau aggregation assay) [5] | IC50 (cellular Tau aggregation assay) [1] | IC50 (cellular Tau aggregation assay) [2] | IC50 (cellular Tau aggregation assay) [5] | Substance
1 | 19% | 50% | 207 nM | 64% | 122 nM | 73% | 22% | – | – | – | IPN002 of WO2014/028777A2 (antibody)
2 | 69% | 80% | 47 nM | 55% | 26 nM | 69% | 56% | 32 nM | 1 nM | 350 nM | PT3 of WO2013/096380A2 (antibody)
3 | 46% | 67% | 73 nM | 79% | – | – | 43% | – | – | – | HJ8.5 of WO 2014/008404 (antibody)

— patent US20210115121A1
